Several values for one entry are separate records, joined by “and”; a condition that tells them apart may be missing. Equal values may be shown once. Read-outs that look alike come from different tables or passages of the source.
How the values were obtained:
[1] = target: NaVAb1p (Alcanivorax borkumensis NaVAb1 'pore only' protein), crystallised from bicelles (Alcanivorax borkumensis); assay: crystal structure
[2] = target: full-length NaVSp1 (from His-MBP-NaVSp1), reconstituted in lipid nanodiscs or amphipol A8-35 (Silicibacter pomeroyi); assay: SEC-MALS
[3] = target: T1, full-length NaVSp1 (from His-MBP-NaVSp1), reconstituted in lipid nanodiscs or amphipol A8-35 (Silicibacter pomeroyi); assay: SEC-MALS
T1 chain: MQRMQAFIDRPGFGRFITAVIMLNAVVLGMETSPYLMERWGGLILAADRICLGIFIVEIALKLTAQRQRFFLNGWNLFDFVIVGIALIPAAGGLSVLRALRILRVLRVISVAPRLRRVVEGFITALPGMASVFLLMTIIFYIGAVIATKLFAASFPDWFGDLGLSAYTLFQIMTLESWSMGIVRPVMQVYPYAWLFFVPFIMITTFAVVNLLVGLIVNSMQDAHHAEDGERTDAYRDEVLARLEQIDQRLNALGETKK

[4] = target: full-length NaVAe1 with C-terminal GFP (Alkalilimnicola ehrlichii, entry strain …, UniProt Q0ABW0); assay: fluorescence-detection size-exclusion chromatography
[5] = target: full-length NaVSp1 with C-terminal GFP (Silicibacter (Ruegeria) pomeroyi, entry …, UniProt F7IVA8); assay: as above

In the case of “NaVAb1p (Alcanivorax borkumensis NaVAb1 'pore only' protein), crystallised from bicelles (domain or fragment)”, the stoichiometry N [1] is reported as 4.

In the case of “full-length NaVSp1 (from His-MBP-NaVSp1), reconstituted in lipid nanodiscs or amphipol A8-35 (natural protein)”, the stoichiometry N [2] is reported as 4 and 8.

B1: sFab SAT09 (synthetic Fab from phage display, selected on NaVAe1/Sp1CTD in nanodiscs) (Fab, V domains shown)
VH: EVQLVESGGGLVQPGGSLRLSCAASGFNFSSSSIHWVRQAPGKGLEWVASISSSSGSTSYADSVKGRFTISADTSKNTAYLQMNSLRAEDTAVYYCARTYGWYYSWWWAFDYWGQGTLVTVSS
VL: DIQMTQSPSSLSASVGDRVTITCRASQSVSSAVAWYQQKPGKAPKLLIYSASSLYSGVPSRFSGSRSGTDFTLTISSLQPEDFATYYCQQGDPRLVTFGQGTKVEIK
B1 was tested, and the “stoichiometry N” value [3] was 2 SAT09 sFabs to one channel, the binding result [4] was “binds” and the binding result [5] was “binds”.

Source: article PMC9809158 (Nature structural & molecular biology, 2022)
